Experiment [1] concerns the target MICA*004 on HCC1534 cells (human, UniProt Q29983 24-383). Kind of experiment: cell-based or functional assay.
In experiment [2] the target is MICB*005 on HCC1534 cells (human). Put plainly: cell-based or functional assay.
Experiment [3] deals with T1, MICA*008 on MEL-JUSO cells (human, UniProt Q29983 24-317).
T1 chain: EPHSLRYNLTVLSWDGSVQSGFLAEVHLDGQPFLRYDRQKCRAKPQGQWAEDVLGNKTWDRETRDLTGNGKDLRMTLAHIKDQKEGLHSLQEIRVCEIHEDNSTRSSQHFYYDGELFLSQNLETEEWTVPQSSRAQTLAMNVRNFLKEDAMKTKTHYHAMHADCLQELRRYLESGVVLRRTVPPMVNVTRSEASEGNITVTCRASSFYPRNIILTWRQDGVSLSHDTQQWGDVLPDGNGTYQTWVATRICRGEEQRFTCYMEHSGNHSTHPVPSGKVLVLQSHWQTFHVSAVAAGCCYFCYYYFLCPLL
Put plainly: cell-based or functional assay.

The target of a further experiment is T2, huMICA*004 alpha 3-his (human).
T2 construct: whole construct entry: GS, alpha 3 domain, GNS, His8; also called MICA004.His; MICA*004 alpha3 construct
T2 chain: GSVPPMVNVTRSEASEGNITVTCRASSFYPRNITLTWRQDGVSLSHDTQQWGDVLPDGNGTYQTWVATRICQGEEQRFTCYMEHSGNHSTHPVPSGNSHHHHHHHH
Kind of experiment: SPR, Biacore 8K, antibody on Protein A chip. Background: In SPR one partner is held on a chip, and binding of the other changes the refractive index at the surface.

The next experiment deals with T3, huMICA*008 alpha 3-his (human).
T3 construct: whole construct entry: GS, alpha 3 domain (Thr204-Ser297), GNS, His8; also the construct of the FPOP experiment; also called MICA008.His; MICA*008 alpha3 construct
T3 chain: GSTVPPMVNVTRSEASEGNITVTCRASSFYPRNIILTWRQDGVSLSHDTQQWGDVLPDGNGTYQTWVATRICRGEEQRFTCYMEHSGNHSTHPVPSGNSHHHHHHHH
Kind of experiment: SPR, Biacore 8K, antibody on Protein A chip.

For a further experiment, the target named is T4, huMICA*002 alpha 3-his (human).
T4 construct: whole construct entry: GS, alpha 3 domain, GNS, His8; also called MICA002.His; MICA*002 alpha3 construct
T4 chain: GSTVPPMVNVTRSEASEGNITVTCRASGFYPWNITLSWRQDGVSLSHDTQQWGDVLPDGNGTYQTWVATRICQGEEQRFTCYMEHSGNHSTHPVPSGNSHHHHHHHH
Kind of experiment: SPR, Biacore 8K, antibody on Protein A chip.

A further experiment deals with T5, huMICB*005 alpha 3-his (human).
T5 construct: whole construct entry: GS, alpha 3 domain, GNS, His8; also called MICB005.His; MICB*005 alpha3 construct
T5 chain: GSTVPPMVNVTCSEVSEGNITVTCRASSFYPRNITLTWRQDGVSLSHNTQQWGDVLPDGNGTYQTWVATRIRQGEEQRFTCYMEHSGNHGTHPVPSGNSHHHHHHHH
Put plainly: SPR, Biacore 8K, antibody on Protein A chip.

Method for huMICA*002 alpha 3-his: (§1) A Protein A sensorchip (GE Healthcare) was used following manufacturer provided protocols to capture humanized anti-MICA/B antibodies. The MICA/B alleles were passed over. Antibody binding was measured to human MICA 002, 004, 008 and MICB 005 alpha 3 domains (His tagged, in-house). Sensograms for binding of MICA/B were recorded using an injection time of 2 minutes with a flow rate of 30 ml/min, at a temperature of 25° C., and with a running buffer of 10 mM HEPES, pH 7.4, 150 mM NaCl, 3mM EDTA, and 0.005% Tween 20. After injection, disassociation of the alpha 3 domain from the antibody was monitored for 10 minutes in running buffer. The surface was regenerated between binding cycles with a 60 ul injection of 10 mM Glycine HCl pH 1.5. […] The data was analyzed using a 1:1 binding model. Sensograms of MICA alleles binding to captured anti-MICA antibody were used to calculate the dissociation constant (Kd).
Method for huMICA*004 alpha 3-his: as §1
Method for huMICA*008 alpha 3-his: as §1
Method for huMICB*005 alpha 3-his: as §1

B1: 13A9v3 (antibody, IgG1, V domains shown)
VH: EVQLVQSGAEVKKPGASVKVSCKASGYAFTNYLIEWVRQAPGQGLEWIGAINPGSGATNYNEKFKDRVTITADTSTSTAYLELSSLRSEDTAVYYCARFLGNYFDNWGQGTLVTVSS
VL: DIQMTQSPSSLSASVGDRVTITCRASGNIHSYLAWYQQKPGKSPKLLVYYAETLADGVPSRFSGSGSGTDYTLTISSLQPEDFATYFCQQFWTTPYTFGQGTKVEIK
notes: humanized variant of 13A9
One may read the % Inhibition as the relative decrease from the control value, in per cent. The term Kd denotes a measure of binding affinity in units of concentration. High values mean lower affinity, low ones higher affinity. In the case of B1, the “% Inhibition” value in experiment [1] was 25%; in experiment [2] it was 42%; in experiment [3], 2%. The Kd came to 4.79 nM with huMICA*004 alpha 3-his, 3.85 nM with huMICA*008 alpha 3-his, 4.97 nM with huMICA*002 alpha 3-his and 3.15 nM with huMICB*005 alpha 3-his.

B2: 13A9v6 (antibody, IgG1, V domains shown)
VH: EVQLVQSGAEVKKPGSSVKVSCKASGYAFTNYLIEWVRQAPGQGLEWIGAINPGSGATNYNEKFKDRATLTADKSTNTAYMELSSLRSEDTAVYFCARFLGNYFDNWGQGTLVTVSS
VL: DIQMTQSPSSLSASVGDRVTITCRASGNIHSYLAWYQQKPGKSPKLLVYYAETLADGVPSRFSGSGSGTDYTLTISSLQPEDFATYFCQQFWTTPYTFGQGTKVEIK
notes: humanized variant of 13A9
With B2, the “% Inhibition” value in experiment [1] came to 16%; in experiment [2], 6%; in experiment [3], 8%. The Kd with huMICA*004 alpha 3-his amounted to 3.77 nM; with huMICA*008 alpha 3-his, 2.8 nM; with huMICA*002 alpha 3-his it was 3.94 nM; with huMICB*005 alpha 3-his it was 2.45 nM.

B3: 13A9v5 (antibody, IgG1, V domains shown)
VH: EVQLVQSGAEVKKPGSSVKVSCKASGYAFTNYLIEWVRQAPGQGLEWIGAINPGSGATNYNEKFKDRATLTADKSTNTAYMELSSLRSEDTAVYFCARFLGNYFDNWGQGTLVTVSS
VL: DIQMTQSPSSLSASVGDRVTITCRASGNIHSYLAWYQQKPGKAPKLLIYYAETLADGVPSRFSGSGSGTDFTLTISSLQPEDFATYYCQQFWTTPYTFGQGTKVEIK
notes: humanized variant of 13A9
As for B3, the “% Inhibition” value in experiment [1] was found to be 9%; in experiment [2], 63%; in experiment [3], 4%. Besides, the Kd with huMICA*004 alpha 3-his turned out to be 5.52 nM; with huMICA*008 alpha 3-his, 3.68 nM; in the experiment with huMICA*002 alpha 3-his, 4.27 nM; with huMICB*005 alpha 3-his, 3.17 nM.

B4: 13A9v4 (antibody, IgG1, V domains shown)
VH: EVQLVQSGAEVKKPGASVKVSCKASGYAFTNYLIEWVRQAPGQGLEWIGAINPGSGATNYNEKFKDRATLTADKSTNTAYLELSSLRSEDTAVYFCARFLGNYFDNWGQGTLVTVSS
VL: DIQMTQSPSSLSASVGDRVTITCRASGNIHSYLAWYQQKPGKSPKLLVYYAETLADGVPSRFSGSGSGTDYTLTISSLQPEDFATYFCQQFWTTPYTFGQGTKVEIK
notes: humanized variant of 13A9
Regarding B4, the “% Inhibition” value was -29% in experiment [1], 63% in experiment [2] and -31% in experiment [3]. Besides, the Kd was 3.69 nM in the experiment with huMICA*004 alpha 3-his, 2.72 nM in the experiment with huMICA*008 alpha 3-his, 3.93 nM with huMICA*002 alpha 3-his and 2.4 nM in the experiment with huMICB*005 alpha 3-his.

B5: 15F11v2 (antibody, IgG1, V domains shown)
VH: EIQLVQSGAEVKKPGASVKVSCKPSGYAFTSNNIYWVRQAPGQGLEWIGYIDPYIGRIIYNQQFKDRATLTVDKSTSTAYLELSSLRSEDTAVYYCSRSGERSNFDYWGQGTLVTVSS
VL: EIVLTQSPATLSLSPGERATLSCSASSSISSNYLHWYQQKPGQAPRLLIYRTSNLASGIPARFSGSGSGTDFTLTISSLEPEDFAVYYCQQGGSLPLTFGQGTKVEIK
notes: humanized variant of 15F11
In the case of B5, the “% Inhibition” value in experiment [1] amounted to 43%; in experiment [2], 35%; in experiment [3] it was 62%. Further, the dissociation constant Kd came out at 2.74 nM with huMICA*004 alpha 3-his, 3.17 nM with huMICA*008 alpha 3-his, 5.05 nM with huMICA*002 alpha 3-his and 6.71 nM in the experiment with huMICB*005 alpha 3-his.

B6: 15F11v5 (antibody, IgG1, V domains shown)
VH: EIQLVQSGAEVKKPGSSVKVSCKPSGYAFTSNNIYWVRQAPGQGLEWIGYIDPYIGRIIYNQQFKDRATLTVDKSTSTAYMELSSLRSEDTAVYYCSRSGERSNFDYWGQGTLVTVSS
VL: EIVLTQSPATLSLSPGERATLSCSASSSISSNYLHWYQQKPGQAPRLLIYRTSNLASGIPARFSGSGSGTDFTLTISSLEPEDFAVYYCQQGGSLPLTFGQGTKVEIK
notes: humanized variant of 15F11
In the case of B6, the entries for the “% Inhibition” value in experiment [1], in experiment [2] and in experiment [3] were 46%, -35% and 62%, respectively. The Kd with huMICA*004 alpha 3-his is 3.11 nM; with huMICA*008 alpha 3-his it was 3.2 nM; with huMICA*002 alpha 3-his, 6.05 nM; in the experiment with huMICB*005 alpha 3-his, 7.8 nM.

B7: 15F11v3 (antibody, IgG1, V domains shown)
VH: EVQLVQSGAEVKKPGASVKVSCKASGYAFTSNNIYWVRQAPGQGLEWIGYIDPYIGRIIYNQQFKDRVTITADTSTSTAYLELSSLRSEDTAVYYCSRSGERSNFDYWGQGTLVTVSS
VL: EIVLTQSPATLSLSPGERATLSCSASSSISSNYLHWYQQKPGQSPRLLIYRTSNLASGVPARFSGSGSGTDYTLTISSLEPEDFAVYYCQQGGSLPLTFGQGTKVEIK
notes: humanized variant of 15F11
Take B7: the “% Inhibition” value in experiment [1] is 39%; in experiment [2], -49%; in experiment [3], 50%. Besides, the Kd with huMICA*004 alpha 3-his was found to be 5.7 nM; with huMICA*008 alpha 3-his, 5.56 nM; with huMICA*002 alpha 3-his, 12.7 nM; with huMICB*005 alpha 3-his it was 14.1 nM.

B8: 15F11v6 (antibody, IgG1, V domains shown)
VH: EIQLVQSGAEVKKPGSSVKVSCKPSGYAFTSNNIYWVRQAPGQGLEWIGYIDPYIGRIIYNQQFKDRATLTVDKSTSTAYMELSSLRSEDTAVYYCSRSGERSNFDYWGQGTLVTVSS
VL: EIVLTQSPATLSLSPGERATLSCSASSSISSNYLHWYQQKPGQSPRLLIYRTSNLASGVPARFSGSGSGTDYTLTISSLEPEDFAVYYCQQGGSLPLTFGQGTKVEIK
notes: humanized variant of 15F11
On to B8, for which the “% Inhibition” value is -14% in experiment [1], 59% in experiment [2] and -8% in experiment [3]. For the same molecule, the Kd was found to be 2.91 nM with huMICA*004 alpha 3-his, 2.94 nM in the experiment with huMICA*008 alpha 3-his, 5.47 nM in the experiment with huMICA*002 alpha 3-his and 6.62 nM in the experiment with huMICB*005 alpha 3-his.

B9: 15F11v1 (antibody, IgG1, V domains shown)
VH: EVQLVQSGAEVKKPGASVKVSCKASGYAFTSNNIYWVRQAPGQGLEWIGYIDPYIGRIIYNQQFKDRVTITADTSTSTAYLELSSLRSEDTAVYYCSRSGERSNFDYWGQGTLVTVSS
VL: EIVLTQSPATLSLSPGERATLSCSASSSISSNYLHWYQQKPGQAPRLLIYRTSNLASGIPARFSGSGSGTDFTLTISSLEPEDFAVYYCQQGGSLPLTFGQGTKVEIK
notes: humanized variant of 15F11
For B9, the “% Inhibition” value in experiment [1] came out at 3%; in experiment [2], 43%; in experiment [3], 4%. Moreover, the Kd in the experiment with huMICA*004 alpha 3-his came to 5.96 nM; with huMICA*008 alpha 3-his it was 6.52 nM; in the experiment with huMICA*002 alpha 3-his it was 12.8 nM; in the experiment with huMICB*005 alpha 3-his, 16.1 nM.

B10: 15F11v4 (antibody, IgG1, V domains shown)
VH: EIQLVQSGAEVKKPGASVKVSCKPSGYAFTSNNIYWVRQAPGQGLEWIGYIDPYIGRIIYNQQFKDRATLTVDKSTSTAYLELSSLRSEDTAVYYCSRSGERSNFDYWGQGTLVTVSS
VL: EIVLTQSPATLSLSPGERATLSCSASSSISSNYLHWYQQKPGQSPRLLIYRTSNLASGVPARFSGSGSGTDYTLTISSLEPEDFAVYYCQQGGSLPLTFGQGTKVEIK
notes: humanized variant of 15F11
In the case of B10, the “% Inhibition” value in experiment [1] was -34%; in experiment [2], 44%; in experiment [3], -19%. Besides, the Kd in the experiment with huMICA*004 alpha 3-his amounted to 2.58 nM; in the experiment with huMICA*008 alpha 3-his it was 2.58 nM; with huMICA*002 alpha 3-his, 4.75 nM; with huMICB*005 alpha 3-his, 5.72 nM.

B11: 6E1.1.12 (antibody, V domains shown)
VH: QGQMQQSGAELVKPGASVKLSCKTSGFTFSDNYISWLKQKPGQSLEWIAWIYAGTGGSSYNQKFRDKAQLTVDTSSRTAYMQLSSLTTEDSAIYYCARHDYYGTSGAWFAYWGRGTLVTVSA
VL: DVLMTQTPLSLPVSLGDQASISCRSSQHIVHSNENTYLEWYLQKPGQSPKLLIYKVSNRFSGVPDRFSGSGSGTDFTLKISRVEAEDLGVYYCFQGSHVPWTFGGGTKVEIK
notes: mouse variable domains
As to B11, the “% Inhibition” value is 34% in experiment [1], 58% in experiment [2] and 31% in experiment [3]. Also, the Kd was 3.95 nM with huMICA*004 alpha 3-his, 3.72 nM with huMICA*008 alpha 3-his, 1.49 nM with huMICA*002 alpha 3-his and 2.96 nM with huMICB*005 alpha 3-his.

These data come from patent US20200055939A1 (Genentech, published 2020).
